Assay results taken from IntAct's records for PubMed 18256688.

B1: Regulator of nonsense transcripts 1 (Homo sapiens), Q92900 (parent)
chain: MSVEAYGPSSQTLTFLDTEEAELLGADTQGSEFEFTDFTLPSQTQTPPGGPGGPGGGGAGGPGGAGAGAAAGQLDAQVGPEGILQNGAVDDSVAKTSQLLAELNFEEDEEDTYYTKDLPIHACSYCGIHDPACVVYCNTSKKWFCNGRGNTSGSHIVNHLVRAKCKEVTLHKDGPLGETVLECYNCGCRNVFLLGFIPAKADSVVVLLCRQPCASQSSLKDINWDSSQWQPLIQDRCFLSWLVKIPSEQEQLRARQITAQQINKLEELWKENPSATLEDLEKPGVDEEPQHVLLRYEDAYQYQNIFGPLVKLEADYDKKLKESQTQDNITVRWDLGLNKKRIAYFTLPKTDSGNEDLVIIWLRDMRLMQGDEICLRYKGDLAPLWKGIGHVIKVPDNYGDEIAIELRSSVGAPVEVTHNFQVDFVWKSTSFDRMQSALKTFAVDETSVSGYIYHKLLGHEVEDVIIKCQLPKRFTAQGLPDLNHSQVYAVKTVLQRPLSLIQGPPGTGKTVTSATIVYHLARQGNGPVLVCAPSNIAVDQLTEKIHQTGLKVVRLCAKSREAIDSPVSFLALHNQIRNMDSMPELQKLQQLKDETGELSSADEKRYRALKRTAERELLMNADVICCTCVGAGDPRLAKMQFRSILIDESTQATEPECMVPVVLGAKQLILVGDHCQLGPVVMCKKAAKAGLSQSLFERLVVLGIRPIRLQVQYRMHPALSAFPSNIFYEGSLQNGVTAADRVKKGFDFQWPQPDKPMFFYVTQGQEEIASSGTSYLNRTEAANVEKITTKLLKAGAKPDQIGIITPYEGQRSYLVQYMQFSGSLHTKLYQEVEIASVDAFQGREKDFIILSCVRANEHQGIGFLNDPRRLNVALTRARYGVIIVGNPKALSKQPLWNHLLNYYKEQKVLVEGPLNNLRESLMQFSKPRKLVNTINPGARFMTTAMYDAREAIIPGSVYDRSSQGRPSSMYFQTHDQIGMISAGPSHVAAMNIPIPFNLVMPPMPPPGYFGQANGPAAGRGTPKGKTGRGGRQKNRFGLPGPSQTNLPNSQASQDVASQPFSQGALTQGYISMSQPSQMSQPGLSQPELSQDSYLGDEFKSQIDVALSQDSTYQGERAYQHGGVTGLSQY

Variants of: B1
Details: with rent2_human UPF2, Q9HAU5
rent2_human UPF2, Q9HAU5, sequence (Q9HAU5 whole entry): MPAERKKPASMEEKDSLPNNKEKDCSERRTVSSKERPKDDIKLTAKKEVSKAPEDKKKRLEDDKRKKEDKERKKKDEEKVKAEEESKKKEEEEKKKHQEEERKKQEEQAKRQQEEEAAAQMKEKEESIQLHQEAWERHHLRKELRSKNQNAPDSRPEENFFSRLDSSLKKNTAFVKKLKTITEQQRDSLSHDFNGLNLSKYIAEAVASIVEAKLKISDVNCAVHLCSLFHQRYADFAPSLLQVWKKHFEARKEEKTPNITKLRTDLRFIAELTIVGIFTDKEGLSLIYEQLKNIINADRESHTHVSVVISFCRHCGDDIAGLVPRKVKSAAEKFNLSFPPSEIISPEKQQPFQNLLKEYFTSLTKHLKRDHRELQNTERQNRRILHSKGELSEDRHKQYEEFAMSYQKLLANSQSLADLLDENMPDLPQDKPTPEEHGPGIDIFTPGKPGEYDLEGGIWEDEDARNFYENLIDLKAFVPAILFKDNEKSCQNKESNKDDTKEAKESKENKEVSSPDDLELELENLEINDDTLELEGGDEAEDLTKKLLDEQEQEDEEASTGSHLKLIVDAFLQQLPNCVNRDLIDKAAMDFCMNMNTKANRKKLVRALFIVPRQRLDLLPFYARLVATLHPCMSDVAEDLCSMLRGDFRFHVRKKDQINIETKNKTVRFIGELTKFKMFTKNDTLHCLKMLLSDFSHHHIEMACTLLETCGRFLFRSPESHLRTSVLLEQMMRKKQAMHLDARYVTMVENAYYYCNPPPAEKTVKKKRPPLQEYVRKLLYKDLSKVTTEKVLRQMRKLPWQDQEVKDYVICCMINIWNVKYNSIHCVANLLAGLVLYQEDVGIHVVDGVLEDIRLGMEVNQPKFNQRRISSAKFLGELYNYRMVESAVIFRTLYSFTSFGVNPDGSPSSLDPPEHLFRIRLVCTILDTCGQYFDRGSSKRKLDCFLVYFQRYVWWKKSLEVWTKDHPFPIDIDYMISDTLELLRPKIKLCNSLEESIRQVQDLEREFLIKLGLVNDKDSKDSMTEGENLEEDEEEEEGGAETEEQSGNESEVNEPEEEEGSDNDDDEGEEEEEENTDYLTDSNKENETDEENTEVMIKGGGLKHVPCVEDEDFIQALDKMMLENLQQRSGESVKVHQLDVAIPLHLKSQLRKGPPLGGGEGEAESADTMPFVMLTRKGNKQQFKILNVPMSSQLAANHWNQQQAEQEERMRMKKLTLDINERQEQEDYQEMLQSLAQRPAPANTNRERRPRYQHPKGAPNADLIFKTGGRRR

Row | effect of a mutation on the interaction | Variant
1 | disrupting interaction | L181V
2 | disrupting interaction | E182R
3 | disrupting interaction | C183V
4 | disrupting interaction | Y184D

Variants of: B1
Details: with rent2_human UPF2, Q9HAU5
Remark: another data set of the same source

Row | effect of a mutation on the interaction | Variant
5 | disrupting interaction | V205I
6 | disrupting interaction | V204D

Variants of: B1
Details: with rent2_human UPF2, Q9HAU5
Remark: another data set of the same source

Row | effect of a mutation on the interaction | Variant
7 | disrupting interaction | C126S
